Measured values taken from paper PMC9902533, “Direct digital sensing of protein biomarkers in solution”.

How the values were obtained:
FUS-SNAP = FUS-SNAP (UniProt P35637 1-526); assay: microchip free-flow electrophoresis (DigitISA); 700 nM aptamer, 2 uM FUS, condensates present; monomer-bound vs free; 10 mM HEPES pH 7.4, 0.05% Tween-20, room temperature (IgE; fibrils and exosomes same buffer); FUS: 50 mM Tris-HCl pH 7.4, 25 mM KCl, 0.02% Tween-20, on-chip desalting; oligomers: from PBS pH 7.4, on-chip desalting; conditions: protein: recombinant; tags: SNAP; label: 3'-Atto488
Chain of FUS-SNAP (P35637 whole entry): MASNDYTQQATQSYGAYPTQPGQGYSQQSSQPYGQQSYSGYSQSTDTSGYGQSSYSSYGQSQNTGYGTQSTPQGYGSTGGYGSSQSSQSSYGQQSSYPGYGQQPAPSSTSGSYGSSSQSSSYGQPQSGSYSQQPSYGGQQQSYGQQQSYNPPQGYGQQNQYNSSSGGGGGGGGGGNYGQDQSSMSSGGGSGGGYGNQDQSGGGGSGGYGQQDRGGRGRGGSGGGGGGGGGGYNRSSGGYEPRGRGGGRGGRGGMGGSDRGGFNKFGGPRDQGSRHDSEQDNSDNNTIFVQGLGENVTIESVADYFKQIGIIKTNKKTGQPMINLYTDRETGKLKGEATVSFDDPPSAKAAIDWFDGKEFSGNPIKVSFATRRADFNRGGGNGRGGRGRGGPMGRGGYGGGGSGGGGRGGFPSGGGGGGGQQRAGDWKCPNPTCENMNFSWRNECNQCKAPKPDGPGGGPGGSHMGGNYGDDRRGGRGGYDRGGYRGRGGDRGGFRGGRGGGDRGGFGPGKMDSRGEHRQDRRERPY

CD63 on exosomes = CD63 on exosomes (human? (MDA-MB-231 breast cancer cell …, UniProt P08962 2-238)); assay: microchip free-flow electrophoresis, single-particle counting (DigitISA); 5, 50, 100 nM aptamer; isolated exosomes; 10 mM HEPES pH 7.4, 0.05% Tween-20, room temperature (IgE; fibrils and exosomes same buffer); FUS: 50 mM Tris-HCl pH 7.4, 25 mM KCl, 0.02% Tween-20, on-chip desalting; oligomers: from PBS pH 7.4, on-chip desalting; conditions: protein: native; tags: none; label: fluorescent label, not specified
Chain of CD63 on exosomes (human? (P08962 2-238): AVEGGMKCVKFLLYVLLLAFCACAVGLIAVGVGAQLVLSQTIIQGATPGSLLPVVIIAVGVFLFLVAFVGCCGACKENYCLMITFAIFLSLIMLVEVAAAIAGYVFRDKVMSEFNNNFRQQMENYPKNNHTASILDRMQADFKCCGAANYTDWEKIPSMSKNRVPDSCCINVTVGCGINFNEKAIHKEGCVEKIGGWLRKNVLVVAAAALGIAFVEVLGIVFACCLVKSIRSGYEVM

[1] = molecular target: alpha-synuclein oligomers (human, UniProt P37840 1-140); assay: microchip free-flow electrophoresis, single-molecule counting (DigitISA); 100 nM aptamer; complex 32.7 pM; 10 mM HEPES pH 7.4, 0.05% Tween-20, room temperature (IgE; fibrils and exosomes same buffer); FUS: 50 mM Tris-HCl pH 7.4, 25 mM KCl, 0.02% Tween-20, on-chip des

B1: GGUG RNA aptamer (ssRNA)
RNA: UUGUAUUUUGAGCUAGUUUGGUGAC
Binder B1 has a Kd (FUS-SNAP) of 280 ± 20 nM.

B2: CD63 aptamer (structured_DNA)
DNA: CACCCCACCTCGCTCCCGTGACACTAATGCTA
B2: binds (CD63 on exosomes).

B3: T-SO606 aptamer (structured_DNA)
DNA: TTTTGGGTCGGCTGTCCGTGGGTGGGGA
B3: binds [1].
